The source of these data is PMC11403609, “Kinetics of Secoisolariciresinol Glucosyltransferase LuUGT74S1 and Its Mutants” (Journal of Agricultural and Food Chemistry, 2024).

B1: LuUGT74S1 (Linum usitatissimum; H194S) (protein)
chain: MAGDEREKAHCLVVPAAAQGHFTPLLQFSKRLIPKRIRVTLALTRFIHSTMTVTAQSGIHIDTISDGFDHSGLILQDPEHYSQTFRRVGSETLTDLIRKQSESRHPVHCIIYDASMPWFLDVAKRFGIVGAAFLTQSCAVNAIYYHLREGTIKRPVVSDPAAGTLVIDGLPPLEVSDLPSFIWDDLHTEFLAASLRQFSNDGADWVFCNTVYQLELEAVDWLTKQWLINFRTIGPTIPSFYLDKQIPDDKDYDISIFNPQNQTCMNWLQSKPDGSVVYVSFGSLARLSPQQTEELYFGLKNSNHYFLWVVRESEVAKLPKEEYLSGEKGLVVSWCSQLQVLASGKVGCFVTHCGWNSTLEALSLGVPMVAMPECGDQLTNAKFIKDVWKTGVRAEADDGKGIMWGMIKREVIERCIREVMEGEETRRNADKWGKIIKEAVVEGGSSDKNTEDFATSLINFAETFQFSC
notes: N-terminal GST fusion (pGEX-4T-1, EcoRI/NotI), tag kept (eluted with glutathione); codon-optimised synthetic gene; E. coli BL21(DE3) pLysS
B2: LuUGT74S1 (Linum usitatissimum; Y144F) (protein)
chain: MAGDEREKAHCLVVPAAAQGHFTPLLQFSKRLIPKRIRVTLALTRFIHSTMTVTAQSGIHIDTISDGFDHSGLILQDPEHYSQTFRRVGSETLTDLIRKQSESRHPVHCIIYDASMPWFLDVAKRFGIVGAAFLTQSCAVNAIFYHLREGTIKRPVVSDPAAGTLVIDGLPPLEVSDLPSFIWDDLHTEFLAAHLRQFSNDGADWVFCNTVYQLELEAVDWLTKQWLINFRTIGPTIPSFYLDKQIPDDKDYDISIFNPQNQTCMNWLQSKPDGSVVYVSFGSLARLSPQQTEELYFGLKNSNHYFLWVVRESEVAKLPKEEYLSGEKGLVVSWCSQLQVLASGKVGCFVTHCGWNSTLEALSLGVPMVAMPECGDQLTNAKFIKDVWKTGVRAEADDGKGIMWGMIKREVIERCIREVMEGEETRRNADKWGKIIKEAVVEGGSSDKNTEDFATSLINFAETFQFSC
notes: as for B1
B3: LuUGT74S1 (Linum usitatissimum; Q136F) (protein)
chain: MAGDEREKAHCLVVPAAAQGHFTPLLQFSKRLIPKRIRVTLALTRFIHSTMTVTAQSGIHIDTISDGFDHSGLILQDPEHYSQTFRRVGSETLTDLIRKQSESRHPVHCIIYDASMPWFLDVAKRFGIVGAAFLTFSCAVNAIYYHLREGTIKRPVVSDPAAGTLVIDGLPPLEVSDLPSFIWDDLHTEFLAAHLRQFSNDGADWVFCNTVYQLELEAVDWLTKQWLINFRTIGPTIPSFYLDKQIPDDKDYDISIFNPQNQTCMNWLQSKPDGSVVYVSFGSLARLSPQQTEELYFGLKNSNHYFLWVVRESEVAKLPKEEYLSGEKGLVVSWCSQLQVLASGKVGCFVTHCGWNSTLEALSLGVPMVAMPECGDQLTNAKFIKDVWKTGVRAEADDGKGIMWGMIKREVIERCIREVMEGEETRRNADKWGKIIKEAVVEGGSSDKNTEDFATSLINFAETFQFSC
notes: as for B1
B4: LuUGT74S1 (Linum usitatissimum; Q136S) (protein)
chain: MAGDEREKAHCLVVPAAAQGHFTPLLQFSKRLIPKRIRVTLALTRFIHSTMTVTAQSGIHIDTISDGFDHSGLILQDPEHYSQTFRRVGSETLTDLIRKQSESRHPVHCIIYDASMPWFLDVAKRFGIVGAAFLTSSCAVNAIYYHLREGTIKRPVVSDPAAGTLVIDGLPPLEVSDLPSFIWDDLHTEFLAAHLRQFSNDGADWVFCNTVYQLELEAVDWLTKQWLINFRTIGPTIPSFYLDKQIPDDKDYDISIFNPQNQTCMNWLQSKPDGSVVYVSFGSLARLSPQQTEELYFGLKNSNHYFLWVVRESEVAKLPKEEYLSGEKGLVVSWCSQLQVLASGKVGCFVTHCGWNSTLEALSLGVPMVAMPECGDQLTNAKFIKDVWKTGVRAEADDGKGIMWGMIKREVIERCIREVMEGEETRRNADKWGKIIKEAVVEGGSSDKNTEDFATSLINFAETFQFSC
notes: as for B1
B5: LuUGT74S1 (Linum usitatissimum; Q136E) (protein)
chain: MAGDEREKAHCLVVPAAAQGHFTPLLQFSKRLIPKRIRVTLALTRFIHSTMTVTAQSGIHIDTISDGFDHSGLILQDPEHYSQTFRRVGSETLTDLIRKQSESRHPVHCIIYDASMPWFLDVAKRFGIVGAAFLTESCAVNAIYYHLREGTIKRPVVSDPAAGTLVIDGLPPLEVSDLPSFIWDDLHTEFLAAHLRQFSNDGADWVFCNTVYQLELEAVDWLTKQWLINFRTIGPTIPSFYLDKQIPDDKDYDISIFNPQNQTCMNWLQSKPDGSVVYVSFGSLARLSPQQTEELYFGLKNSNHYFLWVVRESEVAKLPKEEYLSGEKGLVVSWCSQLQVLASGKVGCFVTHCGWNSTLEALSLGVPMVAMPECGDQLTNAKFIKDVWKTGVRAEADDGKGIMWGMIKREVIERCIREVMEGEETRRNADKWGKIIKEAVVEGGSSDKNTEDFATSLINFAETFQFSC
notes: as for B1
B6: LuUGT74S1 (Linum usitatissimum; A17S) (protein)
chain: MAGDEREKAHCLVVPASAQGHFTPLLQFSKRLIPKRIRVTLALTRFIHSTMTVTAQSGIHIDTISDGFDHSGLILQDPEHYSQTFRRVGSETLTDLIRKQSESRHPVHCIIYDASMPWFLDVAKRFGIVGAAFLTQSCAVNAIYYHLREGTIKRPVVSDPAAGTLVIDGLPPLEVSDLPSFIWDDLHTEFLAAHLRQFSNDGADWVFCNTVYQLELEAVDWLTKQWLINFRTIGPTIPSFYLDKQIPDDKDYDISIFNPQNQTCMNWLQSKPDGSVVYVSFGSLARLSPQQTEELYFGLKNSNHYFLWVVRESEVAKLPKEEYLSGEKGLVVSWCSQLQVLASGKVGCFVTHCGWNSTLEALSLGVPMVAMPECGDQLTNAKFIKDVWKTGVRAEADDGKGIMWGMIKREVIERCIREVMEGEETRRNADKWGKIIKEAVVEGGSSDKNTEDFATSLINFAETFQFSC
notes: as for B1
B7: LuUGT74S1 (Linum usitatissimum; S115F) (protein)
chain: MAGDEREKAHCLVVPAAAQGHFTPLLQFSKRLIPKRIRVTLALTRFIHSTMTVTAQSGIHIDTISDGFDHSGLILQDPEHYSQTFRRVGSETLTDLIRKQSESRHPVHCIIYDAFMPWFLDVAKRFGIVGAAFLTQSCAVNAIYYHLREGTIKRPVVSDPAAGTLVIDGLPPLEVSDLPSFIWDDLHTEFLAAHLRQFSNDGADWVFCNTVYQLELEAVDWLTKQWLINFRTIGPTIPSFYLDKQIPDDKDYDISIFNPQNQTCMNWLQSKPDGSVVYVSFGSLARLSPQQTEELYFGLKNSNHYFLWVVRESEVAKLPKEEYLSGEKGLVVSWCSQLQVLASGKVGCFVTHCGWNSTLEALSLGVPMVAMPECGDQLTNAKFIKDVWKTGVRAEADDGKGIMWGMIKREVIERCIREVMEGEETRRNADKWGKIIKEAVVEGGSSDKNTEDFATSLINFAETFQFSC
notes: as for B1
B8: LuUGT74S1 (Linum usitatissimum) (protein)
chain: MAGDEREKAHCLVVPAAAQGHFTPLLQFSKRLIPKRIRVTLALTRFIHSTMTVTAQSGIHIDTISDGFDHSGLILQDPEHYSQTFRRVGSETLTDLIRKQSESRHPVHCIIYDASMPWFLDVAKRFGIVGAAFLTQSCAVNAIYYHLREGTIKRPVVSDPAAGTLVIDGLPPLEVSDLPSFIWDDLHTEFLAAHLRQFSNDGADWVFCNTVYQLELEAVDWLTKQWLINFRTIGPTIPSFYLDKQIPDDKDYDISIFNPQNQTCMNWLQSKPDGSVVYVSFGSLARLSPQQTEELYFGLKNSNHYFLWVVRESEVAKLPKEEYLSGEKGLVVSWCSQLQVLASGKVGCFVTHCGWNSTLEALSLGVPMVAMPECGDQLTNAKFIKDVWKTGVRAEADDGKGIMWGMIKREVIERCIREVMEGEETRRNADKWGKIIKEAVVEGGSSDKNTEDFATSLINFAETFQFSC
notes: as for B1
B9: LuUGT74S1 (Linum usitatissimum; S115A) (protein)
chain: MAGDEREKAHCLVVPAAAQGHFTPLLQFSKRLIPKRIRVTLALTRFIHSTMTVTAQSGIHIDTISDGFDHSGLILQDPEHYSQTFRRVGSETLTDLIRKQSESRHPVHCIIYDAAMPWFLDVAKRFGIVGAAFLTQSCAVNAIYYHLREGTIKRPVVSDPAAGTLVIDGLPPLEVSDLPSFIWDDLHTEFLAAHLRQFSNDGADWVFCNTVYQLELEAVDWLTKQWLINFRTIGPTIPSFYLDKQIPDDKDYDISIFNPQNQTCMNWLQSKPDGSVVYVSFGSLARLSPQQTEELYFGLKNSNHYFLWVVRESEVAKLPKEEYLSGEKGLVVSWCSQLQVLASGKVGCFVTHCGWNSTLEALSLGVPMVAMPECGDQLTNAKFIKDVWKTGVRAEADDGKGIMWGMIKREVIERCIREVMEGEETRRNADKWGKIIKEAVVEGGSSDKNTEDFATSLINFAETFQFSC
notes: as for B1

Substrate in the data set: COc1cc(C[C@@H](CO)[C@H](CO)Cc2ccc(O)c(OC)c2)ccc1O
The experiment in a line: UDP-Glo glycosyltransferase assay (UDP release), Michaelis-Menten fit. Type of data set: biochemical, Linum usitatissimum. As to conditions: apparent, UDP-glucose 1.64 mM constant (general assay text says 100 μM), 50 mM phosphate pH 8, 30 °C, 30 min, total of mono- and diglucosylation. An excerpt: UDP-Glo glycosyltransferase assay (UDP release), Michaelis-Menten fit on LuUGT74S1
Take B1: the Km was found to be 122 ± 12 µM, the maximal velocity (Vmax) amounted to 0.384 µmol/min/mg, the kcat was 0.34 ± 0.06 s⁻¹ and the kcat/Km stood at 3000 M⁻¹ s⁻¹.
With B2, the Km was 72 ± 1 µM, the Vmax came to 0.9 µmol/min/mg, the kcat amounted to 0.75 ± 0.02 s⁻¹ and the kcat/Km is 10000 M⁻¹ s⁻¹.
On the same counts, the results for B3 are 165 ± 9 µM, 0.324 µmol/min/mg, 0.29 ± 0.04 s⁻¹ and 2000 M⁻¹ s⁻¹.
For B4 the same measures were 75 ± 1 µM, 1.02 µmol/min/mg, 0.92 ± 0.71 s⁻¹ and 12000 M⁻¹ s⁻¹.
For B5 the same measures were 69 ± 2 µM, 0.858 µmol/min/mg, 0.75 ± 0.02 s⁻¹ and 11000 M⁻¹ s⁻¹.
In the case of B6, the Michaelis-Menten constant (Km) was found to be 68 ± 1 µM, the Vmax came to 0.75 µmol/min/mg, the kcat came out at 0.56 ± 0.45 s⁻¹ and the catalytic efficiency (kcat/Km) was determined as 8000 M⁻¹ s⁻¹.
For B7 the same measures were 75 ± 1 µM, 0.834 µmol/min/mg, 0.77 ± 0.02 s⁻¹ and 10000 M⁻¹ s⁻¹.
On the same counts, the results for B8 are 74 ± 1 µM, 0.948 µmol/min/mg, 0.8 ± 0.01 s⁻¹ and 11000 M⁻¹ s⁻¹.
For B9 the same measures were 70 ± 2 µM, 0.894 µmol/min/mg, 0.76 ± 0.08 s⁻¹ and 11000 M⁻¹ s⁻¹.

In general, Km refers to the substrate concentration at which the rate is half of its maximum. One may read the Vmax as the top rate of the reaction or transport when substrate is in excess. Usually kcat stands for the maximal rate divided by the concentration of active sites. By kcat/Km is commonly meant the second-order rate constant that governs catalysis at low substrate concentration.
